Sequences and labels used below:
B1: TPR t1 (parent)
chain: GACCAAUCUGCCCUCAGAGCUCGAGAACAUCUUCGGAUGCAGAGGAGGCAGGCUUCGGUGGCGCGAUAGCGCCAACGUCCUCAACCUCCAAUGCAUCCCACCACAUGAUGAUGCCUGAAGAGCCUUGGUUUUUUG

The variants in this series derive from B1. The series is described as follows: polymerase ribozyme fitness, log enrichment relative to wild type (log ratio); higher = more active; in vitro selection for triplet polymerase activity. Summed up: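 Genotype fitness is the logarithm of its enrichment divided by wild-type enrichment, using inverse-variance-weighted averages of replicates. That logarithm is base 2. Enrichment was measured by Illumina sequencing of input and output libraries from one triplicate in vitro selection round, with frozen incubation at −7 °C, on PCR-built, transcribed mutant libraries of each subunit of a heterodimeric triplet polymerase ribozyme, retaining genotypes with ≥10 input reads and ≥1 read per output.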
For the variant U7A U14G G17C C82G C102A C114G, the “polymerase ribozyme fitness (log ratio)” value is -5.18.
The figure for U7C U112C G113U G135A is -3.06; for A6U C56A C94A U106A C124A it is 0.262.
A6U C11A C13G G47A G48A A74C A118G: the “polymerase ribozyme fitness (log ratio)” value was -5.36.
The figure for A6U G44A C73U C86G is -3.18; for A6U G128A it is -2.02.
The figure for U7A G10C A90U C101A is -4.34; for A6U A24G A37U A43C A66U it is -5.69; for A6U C73G it is -1.46.
Turning to A6U C102A G128A, the “polymerase ribozyme fitness (log ratio)” value was -4.03.
The figure for U7C G17C C115A is 0.0409.
As to U7G C22U A68C G93U C115U A121G, the “polymerase ribozyme fitness (log ratio)” value was -5.51.
To A6U C8A G71C C115A U116A A121G U131A belongs -2.72; to A6U C12A G61A U78A C80U C86A G120A, -2.58; to A6U C115U A119U U130G, -1.27.
For the variant A6G G48U U54A C79U U87A, the “polymerase ribozyme fitness (log ratio)” value was -4.01.
As to A6U C22G U87A U92C A121U, the “polymerase ribozyme fitness (log ratio)” value is -2.63.
The figure for U7C A16G C70A C94U C104U U112A is -1.32; for U7A G57U it is -0.259; for A6G G48U G52C C73G it is -3.58.
The figure for U7G A27G G48C C86G is -0.81.
To A6U U92G belongs -2.92.
For the variant C8A A18C U21G A68G, the “polymerase ribozyme fitness (log ratio)” value was -6.09.
For U7G C124A, the “polymerase ribozyme fitness (log ratio)” value worked out at 1.74.
The figure for A6G G71C A118U is -0.254.
To A6U C11A C12U A37G G61A belongs -1.24; to U7A C12U C62A G113C, -3.19; to A6U C80A A95U G120A U130G, -3.72.
The figure for U7G G10A A41G C79A C80A C115A is -3.95.
As to A6U G42U G51A, the “polymerase ribozyme fitness (log ratio)” value was -5.8.
To A6U C88U G128A belongs -2.51; to U7C C49U A50C C99U A100U G117U, -6.3.
To A6U A26U G39A C49G G61A C88U C124G belongs -3.73; to U7A C20G U78C, -4.76.
To U7G C56A belongs 0.0403.
As to U7A C34A C97U, the “polymerase ribozyme fitness (log ratio)” value was -1.97.
To U7C C8G C79A G110A belongs -2.4; to U7G C22G G117U U130C, -2.69; to A6U G71A, -0.461.
To A6U G71U belongs -0.239; to C8A A26G C56G C115U, -1.74; to U7A U78C G93U G113C, -3.01.
U7G C13G G57A: the “polymerase ribozyme fitness (log ratio)” value was -0.156.
For U7G G45C G47A U59C, the “polymerase ribozyme fitness (log ratio)” value was -1.08.
The figure for C8A A84G is 0.231; for A6U G61U it is -0.0436; for U7C C11A C22A it is -5.95.
The figure for A6U C40A C56G A84G C104U is -2.66; for A6U C8U G48U it is -0.267.
To U7A C89U belongs -0.565; to U7C A41U C123G U131A, 0.484.
For the variant A6U C20U A37U G61A, the “polymerase ribozyme fitness (log ratio)” value was -0.862.
To U7A A16U C49U C124U belongs 1.1; to U7G G48U C70A C86G, -1.54; to U7G C8U A90U A121C, 1.04.
To A6G G47U G71A belongs -2.24.
The figure for A6U A26G C79U is -2.88; for U7G G69U it is 0.479; for A6G G10U A43C G71A it is -4.79.
For the variant U7G C72U U81A A91C G107C U112C, the “polymerase ribozyme fitness (log ratio)” value is -5.54.
With U7C G45U G60A C82G C85G G117A, the “polymerase ribozyme fitness (log ratio)” value was -3.81.
The figure for U7C C56A G71U A90C is -3.95; for U7C A24U G61U it is -7.38; for U7A C20U it is -0.343.
With U7C C72U, the “polymerase ribozyme fitness (log ratio)” value was determined as 0.588.
For A6U G51U C70U C80U G93U, the “polymerase ribozyme fitness (log ratio)” value is -5.12.
As to A6U A18G G93A, the “polymerase ribozyme fitness (log ratio)” value was -5.43.
The figure for U7A U9C is 0.526.
As for U7A G93C, the “polymerase ribozyme fitness (log ratio)” value is -0.696.
To A6U A29U G61A C115G G117U belongs -4.58.
The figure for A6U A16U C40G C56A is -3.22; for A6U G25A C56A C73A C79G C94U G113U C124A it is -8.13; for C8A A16U G120U U130G it is 1.06.
As to U7C A16U C79U C85A, the “polymerase ribozyme fitness (log ratio)” value was -4.35.
To A6U A90U C114A U116G belongs -3.49; to A6U C40G G42C C76A C94U U112C G122A, -2.22; to A6G G10U C56U C94U G135U, -1.99.
In the case of A6U A18G C20U C73G U125A, the “polymerase ribozyme fitness (log ratio)” value was -2.1.
Turning to A6G G71A G120C, the “polymerase ribozyme fitness (log ratio)” value was 0.128.
To A6U C15A G113A belongs -4.98; to U7C U59A A83G U96C, -1.25.
Turning to U7G C79U U81C C86U C88A U125A, the “polymerase ribozyme fitness (log ratio)” value is -4.3.
To U7A A16C C115A belongs -2.49.

(Values after the RNAGym collection of RNA variant scans (doi:10.1073/pnas.2313332121).)
